One may read the stoichiometry N as the number of molecules, sites or subunits per partner or assembly.

Series [1] is described as follows: SEC; analytical Superdex 200 calibrated with globular proteins; 25 µM protein; 20 mM sodium phosphate, 50 mM NaCl pH 7.3, 1 mM DTT. Background: Size exclusion chromatography separates by hydrodynamic size, large species first.
Series [2] addresses PhaP from Azotobacter sp. FA8 (Azotobacter sp. FA8). Briefly: SEC-MALS; 90° static light scattering (PD2010) with differential refractometer in tandem with analytical Superdex 200; 25 µM protein; 20 mM sodium phosphate pH 7.4, 150 mM NaCl, 1 mM DTT; average molecular weight of the oligomer.

PhaP from Azotobacter sp. FA8: the “apparent number of monomers (SEC, globular calibration)” value in series [1] is “This molecular weight corresponds to 9 monomers”.

Turning to “PhaP from Azotobacter sp. FA8 (natural protein)”, in series [2], the stoichiometry N came to 4.
